Experimental findings from patent publication US20240343803A1 (SHANDONG SIMCERE BIOPHARMACEUTICAL, published 2024) are described below.

The chains are these.
T1: Full-length human TIGIT on CHO-K1 cells (CHO-K1 human TIGIT) (human, UniProt Q495A1 22-244)
T1 construct: NCBI XP_024309156.1; the entry includes the signal peptide (limits not recoverable); The strain (high, medium, low) is named under assay; also called high expression strain 1D2; medium expression strain 2D10
T1 sequence: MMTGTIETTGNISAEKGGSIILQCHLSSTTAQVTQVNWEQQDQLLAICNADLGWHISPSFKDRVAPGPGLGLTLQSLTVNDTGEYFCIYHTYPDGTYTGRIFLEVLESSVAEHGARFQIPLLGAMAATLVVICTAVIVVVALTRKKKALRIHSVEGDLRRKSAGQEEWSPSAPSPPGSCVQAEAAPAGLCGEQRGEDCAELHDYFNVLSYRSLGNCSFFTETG

T2: Fusion protein of extracellular domain of human TIGIT and mouse IgG2a Fc fragment (human TIGIT ECD-mFc) (human)
T2 construct: The entry includes the signal peptide (limits not recoverable) and the mouse IgG2a Fc
T2 chain: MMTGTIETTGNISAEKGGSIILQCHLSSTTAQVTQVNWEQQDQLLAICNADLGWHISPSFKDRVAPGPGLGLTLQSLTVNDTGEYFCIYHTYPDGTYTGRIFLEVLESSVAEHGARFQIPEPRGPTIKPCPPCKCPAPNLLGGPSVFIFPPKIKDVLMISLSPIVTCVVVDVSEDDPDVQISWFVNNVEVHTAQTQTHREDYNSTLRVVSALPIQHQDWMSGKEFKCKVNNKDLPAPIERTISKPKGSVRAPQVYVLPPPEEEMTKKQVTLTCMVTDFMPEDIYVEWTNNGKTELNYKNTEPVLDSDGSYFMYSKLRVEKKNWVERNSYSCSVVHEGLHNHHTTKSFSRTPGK

T3: Fusion protein of extracellular domain of human TIGIT and His-tag (human TIGIT ECD-his) (human)
T3 chain: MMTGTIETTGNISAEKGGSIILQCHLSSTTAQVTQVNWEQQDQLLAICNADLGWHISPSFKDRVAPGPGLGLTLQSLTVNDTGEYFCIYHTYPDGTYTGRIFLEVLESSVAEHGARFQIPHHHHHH

B1: TIGIT-CHI-002 (antibody, V domains shown)
VH: EVQLQESGPGLAKPSQTLSLACSVTGYSITSDSWNWIRKFPGNKLEYMGYISYSGNTYYNPSLKSRISITRDTSKNQFYLQLNSVTTEDTATYYCARLDFSNYGGAVDYWGQGTSVTVSS
VL: DIVMTQSHTFMSTSVGDRVSITCKASQNVRTAVAWYQQKPGQSPKLMIYSASYRYTGVPDRFTGSGSGTDFTFTISSVQAEDLAVYYCQQYYTTPWTFGGGAKLEIQ
notes: Human-mouse chimeric antibody
B2: TIGIT-CHI-006 (antibody, V domains shown)
VH: B1 VH with L18P, A21T, I29M, S33Y, N56R, L98G, F100Y, V107M, D108Y, Y109D
VL: DIVMTQSHKFMSTSVGDRVSITCRASQGVSTTIAWYQQKPGQSPKLLIYSASYRYTGVPDRFTGSGSGTDFTFTISGVQAEDLAVYYCQQYYSSPFTFGGGTKLEIK
notes: Human-mouse chimeric antibody
B3: TIGIT-005-H2L1a (antibody, V domains shown)
VH: EVQLVQSGAEVKKPGASVKVSCKASGYAFTNYLIEWVRQAPGQRLEWMGVINPGSGGTNYKEKFKGRVTITADKSSSTAYMELSSLRSEDTAVYYCARGEYFFFDYWGQGTTVTVSS
VL: DIVMTQSPDSLAVSLGERATINCKASQHVSQGVAWYQHKPGQSPKLLIYSASYRYTGVPDRFSGSGSGTDFTLTISSLQAEDVAVYYCQQHYNTPHTFGGGTKVEIK
notes: Humanized anti-TIGIT antibody with NG-site mutation in VL
B4: TIGIT-005-H2L1b (antibody, V domains shown)
VH: B3 VH
VL: B3 VL with Q31T
notes: as for B3
B5: TIGIT-005-H2L1c (antibody, V domains shown)
VH: B3 VH
VL: B3 VL with Q31D
notes: as for B3
B6: TIGIT-CHI-005 (antibody, V domains shown)
VH: QVQLQQSGAELVRPGTSVKVSCKASGYAFTNYLIEWVKQRPGQGLEWIGVINPGSGGTNYKEKFKGKATLTADKSSSTAYMQLSSLTSEDSAVYFCARGEYFFFDYWGQGTTLTVSS
VL: DIVMTQSHKFMSTSVGDRVSITCKASQHVSNGVAWYQHKPGQSPKLLIYSASYRYTGVPDRFTGTGSGTDFTFTISSVQAEDLAVYYCQQHYNTPHTFGGGTKLEIK
notes: Human-mouse chimeric antibody
B7: TIGIT-CHI-070 (antibody, V domains shown)
VH: QVQLQQPGTELVKPGASVKLSCRASGYTFTNYYMHWVKQRPGRGLEWIGRIDPDSGGSKYNEKFKSKATLTVDKLSSTAYMQLSSLTSEDSAVYYCAREGHYGFYSDYWGQGTTLTVSS
VL: DIQMTQSPASLSASVGETVTITCRVSENIYSYLAWYQQKQGKSPQLLVYNAKTLAEGVPSRFSGSGSGTQFSLKINSLQPEDFGNYYCQHHYGNPLTFGAGTKLDLK
notes: Human-mouse chimeric antibody

Where a chain is given by its changes, count along the chain named.

T5 sequence (chain, as listed by the source limits assumed): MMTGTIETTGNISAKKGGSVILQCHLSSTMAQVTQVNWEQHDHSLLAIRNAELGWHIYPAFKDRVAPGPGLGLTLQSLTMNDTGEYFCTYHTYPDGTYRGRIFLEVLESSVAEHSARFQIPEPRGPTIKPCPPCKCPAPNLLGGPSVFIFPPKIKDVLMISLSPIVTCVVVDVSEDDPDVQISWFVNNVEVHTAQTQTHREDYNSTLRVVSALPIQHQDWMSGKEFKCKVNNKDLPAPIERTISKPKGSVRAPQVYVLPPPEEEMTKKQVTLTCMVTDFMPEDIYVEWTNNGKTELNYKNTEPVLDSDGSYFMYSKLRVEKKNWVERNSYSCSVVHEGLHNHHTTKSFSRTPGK

The target of one experiment is T4, Fusion protein of extracellular domain of human TIGIT and human IgG1 Fc fragment (human TIGIT ECD-hFc) (human).
T4 construct: The entry includes the signal peptide (limits not recoverable) and the human IgG1 Fc
T4 sequence (chain, as listed by the source limits assumed): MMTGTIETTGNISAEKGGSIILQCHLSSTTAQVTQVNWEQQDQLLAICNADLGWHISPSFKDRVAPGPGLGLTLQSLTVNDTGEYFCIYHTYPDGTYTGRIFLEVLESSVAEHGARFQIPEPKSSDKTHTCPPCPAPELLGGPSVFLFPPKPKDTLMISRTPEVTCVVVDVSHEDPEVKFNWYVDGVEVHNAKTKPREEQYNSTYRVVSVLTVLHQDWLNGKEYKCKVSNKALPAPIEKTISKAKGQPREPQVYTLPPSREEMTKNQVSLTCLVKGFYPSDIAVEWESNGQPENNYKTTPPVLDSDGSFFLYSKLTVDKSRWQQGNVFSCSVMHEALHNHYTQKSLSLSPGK
The experiment is described as follows: blocking of TIGIT ECD-hFc binding to CHO-K1 CD155 cells. The procedure, abridged: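 Inhibition was expressed as IC50 values derived from the inhibition curves of a cell-based ELISA. CHO-K1 CD155 cells were cultured overnight, fixed, and blocked with 5% skim milk-PBS. Antibodies were first premixed for 0.5 h with human TIGIT ECD-hFc at a working concentration of 30 ng/mL, and the mixture was then added to the cells for 1.5-2 h at 37° C. Bound TIGIT was detected with HRP secondary antibody (1:5000, 37° C, 1 h) and TMB, and read as OD450 nm.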
For B1, the 50% inhibitory concentration (IC50) is 0.564 nM.
The same measure, in the same setting: to B2 belongs 0.579 nM; to B3, 0.717 nM; to B4, 0.358 nM.
With B5, the IC50 is 0.347 nM.
Same read-out and setting: the same measure for B6: 0.36 nM; for B7: 0.637 nM.

In a further experiment the target is T1, Full-length human TIGIT on CHO-K1 cells …. The experiment is described as follows: cell binding, CHO-K1 human TIGIT high expression strain. The essentials:
(§1)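 Binding was measured by flow cytometry after a 60-minute, 4° C incubation of the antibodies with 2×10⁵ CHO-K1 cells displaying full-length human or cynomolgus monkey TIGIT. Antibody titration: 12 points, threefold serial dilution from 80 nM, in 1% BSA-PBS.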
With B1, the EC50 was found to be 0.0218 nM.
Same read-out and setting: to B2 belongs 0.0299 nM.
In turn, B3 gave a concentration for a half-maximal effect (EC50) of 0.0129 nM.
Still for that read-out and setting: to B4 belongs 0.0279 nM; to B5, 0.0246 nM.
Still for that read-out and setting: to B6 belongs 0.026 nM; to B7, 0.033 nM.

In another experiment the target is T2, Fusion protein of extracellular domain …. The experiment is described as follows: ELISA, human TIGIT ECD-mFc. The procedure, abridged:
(§2)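 Antibodies diluted to 13 nM in 1% BSA, then 3-fold serial dilution for 12 concentrations, incubated with milk-blocked plates at 37° C for 1.5-2 h. Bound antibody detected with HRP-labelled secondary antibody (1:5000, 37° C, 1 h) and TMB, stopped with 1M HCl; OD450 nm read.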
B1: the EC50 was 0.0161 nM.
Same read-out and setting: to B2 belongs 0.0152 nM; to B3, 0.0289 nM; to B4, 0.0238 nM.
Molecule B5 had a concentration for a half-maximal effect (EC50) of 0.0268 nM.
Still for that read-out and setting: the same measure for B6: 0.019 nM.
On the same count and under the same terms, to B7 belongs 0.0159 nM.

The target of a further experiment is T3, Fusion protein of extracellular domain …. The experiment is described as follows: BIAcore; KD ratio, by the numbers to TIGIT-005-H2L1 of r33.
As to B3, the “Fold change vs chimeric antibodies (KD)” value stood at 50 fold.
On the same count and under the same terms, the same measure for B4: 9.89 fold; for B5: 2.48 fold.

The next experiment concerns the target T5, Fusion protein of extracellular domain of cynomolgus monkey TIGIT and mouse IgG2a Fc fragment (cynomolgus … (cynomolgus monkey)).
T5 construct: The entry includes the signal peptide (limits not recoverable) and the mouse IgG2a Fc
The experiment is described as follows: ELISA, cynomolgus monkey TIGIT ECD-mFc. The procedure, abridged: as §2
Turning to B1, a half-maximal effect (EC50) was put at 0.02 nM.
Still for that read-out and setting: the same measure for B2: 0.0258 nM.
On the same count and under the same terms, the same measure for B3: 0.0357 nM; for B4: 0.032 nM; for B5: 0.0296 nM.
B6 had a concentration for a half-maximal effect (EC50) of 0.0165 nM.
Still for that read-out and setting: the same measure for B7: 0.0184 nM.

The target in the next experiment is T6, Full-length cynomolgus monkey TIGIT on CHO-K1 cells (CHO-K1 cynomolgus monkey TIGIT) (cynomolgus monkey).
T6 construct: NCBI XP_015300911.1
T6 sequence (chain, as listed by the source limits assumed): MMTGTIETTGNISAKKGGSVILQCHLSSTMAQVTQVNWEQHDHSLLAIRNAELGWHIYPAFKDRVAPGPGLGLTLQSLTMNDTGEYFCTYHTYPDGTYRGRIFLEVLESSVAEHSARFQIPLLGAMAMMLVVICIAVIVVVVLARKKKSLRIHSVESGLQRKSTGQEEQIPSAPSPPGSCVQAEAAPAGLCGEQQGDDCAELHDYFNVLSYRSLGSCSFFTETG
The experiment is described as follows: cell binding, CHO-K1 cynomolgus monkey TIGIT. The procedure, abridged: as §1
As to B1, the EC50 is 0.0372 nM.
The same measure, in the same setting: the same measure for B2: 0.15 nM; for B3: 0.0561 nM.
The same measure, in the same setting: the same measure for B4: 0.0368 nM; for B5: 0.0673 nM; for B6: 0.0265 nM.
With B7, the EC50 worked out at 0.0741 nM.

A further experiment addresses T3, Fusion protein of extracellular domain …. Nature of the experiment: BIAcore; reference itself.
As for B1, the “Fold change vs chimeric antibodies (KD)” value was 1 fold.
On the same count and under the same terms, the same measure for B2: 1 fold; for B6: 1 fold; for B7: 1 fold.

For the next experiment the target is unchanged. The experiment is described as follows: BIAcore.
Consider B1, for which binding was put at a Kd of 0.0421 nM, the dissociation rate constant (koff) came to 0.0003 s⁻¹ and the association rate constant (kon) was 7.13e+06 M⁻¹ s⁻¹.
Consider B2, for which the Kd turned out to be 0.0774 nM, the off-rate constant (koff) came out at 0.000162 s⁻¹ and the association rate constant (kon) turned out to be 2.09e+06 M⁻¹ s⁻¹.
In the case of B3, the equilibrium dissociation constant (Kd) came out at 3.71 nM, the koff worked out at 0.0105 s⁻¹ and the kon amounted to 2.83e+06 M⁻¹ s⁻¹.
In the case of B4, the Kd came to 0.734 nM, the koff came out at 0.00248 s⁻¹ and the on-rate constant (kon) amounted to 3.38e+06 M⁻¹ s⁻¹.
The matching figures for B5: 0.184 nM, 0.000459 s⁻¹ and 2.49e+06 M⁻¹ s⁻¹.
The like results for B6 were, in that order, 0.0276 nM, 0.000113 s⁻¹ and 4.76e+06 M⁻¹ s⁻¹.
The matching figures for B7: 0.098 nM, 0.000145 s⁻¹ and 1.48e+06 M⁻¹ s⁻¹.
